Test results from US20050142135A1 (UNIVERSITY OF KENTUCKY RESEARCH FOUNDATION, published 2005).
Changes are numbered by the printed parent chain. In names and notes the source's numbering stands. Each block holds one binder with its values, some of them ahead of it.

Experiments:
human FSH = target: T1, human FSH (human, UniProt P01215 25-116; P01225 19-129); test: 125I-FSH competition binding on HEK293 cells, Scatchard
T1 construct: heterodimer, purchased from the National Hormone and Pituitary Program; also called follicle stimulating hormone
Protocol: The Kd values were determined by Scatchard plots. Truncated exodomain was solubilized in Nonidet P-40 and assayed for hormone binding as described previously. For intracellular cAMP assay, cells were washed twice with Dulbecco's modified Eagle's media and incubated in the media containing isobutylmethylxanthine (0.1 mg/ml) for 15 minutes. […] After removing the media, the cells were rinsed once with fresh media without isobutylmethylxanthine, lysed in 70% ethanol, freeze-thawed in liquid nitrogen, and scraped. After pelleting cell debris at 16,000×g for 10 minutes at 4° C., the supernatant was collected, dried under vacuum and resuspended in 10 μl of the cAMP assay buffer, which was provided by the manufacturer. cAMP concentrations were determined with an ¹²⁵I-cAMP assay kit (Amersham) following the manufacturer's instruction and validated for use in our laboratory. Exoloop 3 of FSHR was modeled based on the crystal structure of rhodopsin as a template.

[1] = target: T2, human LH receptor, wild type (human, UniProt P22888 27-699); test: competition of 125I-hCG binding to cells expressing LHR
T2 construct: whole, on cells; stably expressed in HEK 293 cells; This holds for all LHR mutants and LHR peptides below; also called LH/CG receptor
T2 sequence (P22888 27-699): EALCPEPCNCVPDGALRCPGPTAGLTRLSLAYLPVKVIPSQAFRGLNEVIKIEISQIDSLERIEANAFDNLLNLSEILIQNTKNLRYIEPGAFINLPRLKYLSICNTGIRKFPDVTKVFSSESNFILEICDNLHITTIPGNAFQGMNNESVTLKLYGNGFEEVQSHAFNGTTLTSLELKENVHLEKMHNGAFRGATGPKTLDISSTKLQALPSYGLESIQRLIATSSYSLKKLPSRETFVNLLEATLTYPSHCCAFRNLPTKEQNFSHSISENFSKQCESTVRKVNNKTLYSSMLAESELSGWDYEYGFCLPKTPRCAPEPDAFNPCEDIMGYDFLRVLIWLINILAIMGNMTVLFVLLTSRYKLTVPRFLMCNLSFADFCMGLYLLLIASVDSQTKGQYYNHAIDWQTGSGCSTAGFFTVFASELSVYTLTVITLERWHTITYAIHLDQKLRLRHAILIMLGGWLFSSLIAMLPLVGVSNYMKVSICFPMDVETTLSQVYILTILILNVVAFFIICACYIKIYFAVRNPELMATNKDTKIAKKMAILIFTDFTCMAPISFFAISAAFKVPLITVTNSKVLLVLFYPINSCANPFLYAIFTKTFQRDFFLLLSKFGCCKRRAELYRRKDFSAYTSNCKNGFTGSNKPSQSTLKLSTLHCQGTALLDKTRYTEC
Protocol: The Kd values were determined by Scatchard plots. For intracellular cAMP assay, cells were washed twice with Dulbecco's modified Eagle's media and incubated in the media containing isobutylmethylxanthine (0.1 mg/ml) for 15 minutes. Increasing concentrations of hormone were then added and the incubation was continued for 45 minutes at 37° C. After removing the media, the cells were rinsed once with fresh media without isobutylmethylxanthine, lysed in 70% ethanol, freeze-thawed in liquid nitrogen, and scraped.

- Kd (human FSH): 50 nM
B1: FSHR^K590F (receptor)
chain: CHHRICHCSNRVFLCQESKVTEIPSDLPRNAIELRFVLTKLRVIQKGAFSGFGDLEKIEISQNDVLEVIEADVFSNLPKLHEIRIEKANNLLYINPEAFQNLPNLQYLLISNTGIKHLPDVHKIHSLQKVLLDIQDNINIHTIERNSFVGLSFESVILWLNKNGIQEIHNCAFNGTQLDELNLSDNNNLEELPNDVFHGASGPVILDISRTRIHSLPSYGLENLKKLRARSTYNLKKLPTLEKLVALMEASLTYPSHCCAFANWRRQISELHPICNKSILRQEVDYMTQARGQRSSLAEDNESSYSRGFDMTYTEFDYDLCNEVVDVTCSPKPDAFNPCEDIMGYNILRVLIWFISILAITGNIIVLVILTTSQYKLTVPRFLMCNLAFADLCIGIYLLLIASVDIHTKSQYHNYAIDWQTGAGCDAAGFFTVFASELSVYTLTAITLERWHTITHAMQLDCKVQLRHAASVMVMGWIFAFAAALFPIFGISSYMKVSICLPMDIDSPLSQLYVMSLLVLNVLAFVVICGCYIHIYLTVRNPNIVSSSSDTRIAKRMAMLIFTDFLCMAPISFFAISASLKVPLITVSKAFILLVLFHPINSCANPFLYAIFTKNFRRDFFILLSKCGCYEMQAQIYRTETSSTVHNTHPRNGHCSSAPRVTSGSTYILVPLSHLAQN

- Kd (human FSH): 7.2 nM
B2: FSHR^K590L (receptor)
chain: B1 chain with F591L

- potency relative to LHR^exo3 in inhibiting ^125I-hCG binding to LHR [1]: > 10000 fold
B3: hCG (ligand)
chain 1: not shown
chain 2: SKEPLRPRCRPINATLAVEKEGCPVCITVNTTICAGYCPTMTRVLQGVLPALPQVVCNYRDVRFESIRLPGCPRGVNPVVSYAVALSCQCALCRRSTTDCGGPKDHPLTCDDPRFQDSSSSKAPPPSLPSPSRLPGPSDTPILPQ
notes: purchased from the National Hormone and Pituitary Program; also called human chorionic gonadotropin
